In the supplement of paper PMC9732359:
± gives the uncertainty stated by the source.

Experiment: protein stability index of a GFP-peptide fusion (yeast GPS) (PSI 1-4); higher = more stable; sorted into four equal gates, so the index is relative within each strain
Conditions: doa10∆
Method in brief: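 Peptides tiling yeast proteins in 17-residue segments were fused downstream of GFP, with Cherry expressed from the same plasmid. As a pooled library in yeast, mid-log cultures grown in leucine-free medium were sorted into four equal gates by GFP/Cherry fluorescence ratio. Gate plasmids were PCR-amplified and Illumina-sequenced, and barcodes linked reads to strains. Each peptide received a protein stability index equal to the sum of each gate's read frequency times its gate number.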
IDYKLRVLTQDGRVYIG [SMB1] showed a protein stability index of 2.49 ± 0.09.
With IEALYDDDTFSDREMAA [RPN2] the protein stability index was 2.19 ± 0.066.
IEKMSTIVQLCKKKEMS [YIL149C/MLP2] showed a protein stability index of 1.8 ± 0.059.
IERYPSKVTKKHGAKKV [RPL27B] showed a protein stability index of 3.26 ± 0.074.
With IESALKSKLDQDSTSEN [RPN2] the protein stability index was 2.76 ± 0.072.
Sequence IETVMTQEQFVKRRRDM [SRB4] has a protein stability index of 2.94 ± 0.22.
For IFALCIYNSTDSNSEIL [YML103C/NUP188], the protein stability index was 1.39 ± 0.17.
Sequence IFFDEIDAVGGARFDDG [RPT1] has a protein stability index of 3.01 ± 0.17.
IFKIVQSRLMSTSYHLN [MED6] showed a protein stability index of 2.25 ± 0.18.
In the case of IFVSILSDRANKNQDAF [ARP9], the protein stability index is reported as 2.85 ± 0.057.
With IFWGIRLAKSTENEIPN [BRR2] the protein stability index was 1.42 ± 0.089.
With IGDTIADGPTMREITET [RPO21] the protein stability index was 3.48 ± 0.11.
IGDVDGLIVNPVKVSGT [POP5] showed a protein stability index of 2.73 ± 0.048.
IGDYILKSPVLSKLCVP [QCR7] showed a protein stability index of 1.55 ± 0.061.
With IGGLIPQWKRHLEEYGY [YCS4] the protein stability index was 2.47 ± 0.068.
For IGIDEGSDEAYVKDARK [RPC40], the protein stability index was 3.48 ± 0.074.
Sequence IGIPVNKASLAQYEVLA [QCR2] has a protein stability index of 2.52 ± 0.06.
IGLDTQQVEGKLSQMIL [RPN6] gave a protein stability index of 2.95 ± 0.066.
IGLRQFQQIQYENKQLY [POP1] gave a protein stability index of 2.84 ± 0.085.
Sequence IGQAVQPKRNLSRYVKW [RPL8A] has a protein stability index of 2.69 ± 0.065.
With IGQFLEPIDQNTGIVSS [RPT3] the protein stability index was 2.48 ± 0.2.
In the case of IGTNDLFQVESAPKISS [SIR4], the protein stability index is reported as 2.42 ± 0.049.
For IGVIAGGGRVDKPLLKA [RPL2A], the protein stability index was 3.2 ± 0.088.
Work on IGVLNNSSESDEEESND [RPN13] yielded a protein stability index of 3.52 ± 0.2.
Work on IHGVLKNVDREVVSEAI [FAS2] yielded a protein stability index of 3.19 ± 0.1.
Work on IIMQADLALKMGVPIYG [FAS2] yielded a protein stability index of 1.63 ± 0.12.
Work on IINKLIHIQSKENYPWE [POP3] yielded a protein stability index of 2.65 ± 0.067.
For IIPSRMGEAQTGANFDD [REC8], the protein stability index was 1.93 ± 0.089.
For IKEFVDDLKKDHIAIDW [DSN1], the protein stability index was 2.56 ± 0.08.
In the case of IKENFFERIMILDPQVT [YJL039C/NUP192], the protein stability index is reported as 1.3 ± 0.062.
IKIVSDKKVLVKVQPEG [RPT6] showed a protein stability index of 2.75 ± 0.1.
With IKKIVADLKKGKDLSPA [QCR2] the protein stability index was 3.5 ± 0.24.
In the case of IKTFYWLEQFLSCVKND [NUT1], the protein stability index is reported as 1.31 ± 0.052.
With IKYEFNGIPLKSKERSS [YMR129W/POM152] the protein stability index was 2.39 ± 0.11.
With ILAAAHRDAYSGGSVNL [PRE2] the protein stability index was 2.86 ± 0.078.
In the case of ILDSLPSVIHSSVEMLL [YDL116W/NUP84], the protein stability index is reported as 1.97 ± 0.055.
In the case of ILEEGSSGMGAFGGSGG [RPN10], the protein stability index is reported as 3.36 ± 0.13.
ILLYGPPGTGKTLCARA [RPT1] showed a protein stability index of 1.26 ± 0.1.
ILNEVFTNPSIVKVFHG [RRP6] showed a protein stability index of 1.24 ± 0.083.
Sequence ILNFLNQEDLFELVHHF [YML103C/NUP188] has a protein stability index of 2.56 ± 0.14.
In the case of ILNSYGVLKPDITFFGE [SIR2], the protein stability index is reported as 3.27 ± 0.069.
With ILQILDQDELVQPPLDK [SWP82] the protein stability index was 2.58 ± 0.068.
In the case of ILRNGIDYLQRNDKTLE [POP1], the protein stability index is reported as 3.19 ± 0.058.

Same assay, conditions: pdr5∆
Work on IDYKLRVLTQDGRVYIG [SMB1] yielded a protein stability index of 2.71 ± 0.076.
With IEALYDDDTFSDREMAA [RPN2] the protein stability index was 1.89 ± 0.051.
IEKMSTIVQLCKKKEMS [YIL149C/MLP2] showed a protein stability index of 1.78 ± 0.055.
With IERYPSKVTKKHGAKKV [RPL27B] the protein stability index was 3.49 ± 0.095.
With IESALKSKLDQDSTSEN [RPN2] the protein stability index was 3.04 ± 0.073.
With IETVMTQEQFVKRRRDM [SRB4] the protein stability index was 3.24 ± 0.12.
With IFALCIYNSTDSNSEIL [YML103C/NUP188] the protein stability index was 2.19 ± 0.075.
For IFFDEIDAVGGARFDDG [RPT1], the protein stability index was 2.77 ± 0.15.
Sequence IFKIVQSRLMSTSYHLN [MED6] has a protein stability index of 2.23 ± 0.13.
For IFVSILSDRANKNQDAF [ARP9], the protein stability index was 2.39 ± 0.058.
With IFWGIRLAKSTENEIPN [BRR2] the protein stability index was 1.43 ± 0.055.
IGDTIADGPTMREITET [RPO21] showed a protein stability index of 3.52 ± 0.092.
Sequence IGDVDGLIVNPVKVSGT [POP5] has a protein stability index of 3.02 ± 0.046.
IGDYILKSPVLSKLCVP [QCR7] gave a protein stability index of 1.36 ± 0.078.
IGGLIPQWKRHLEEYGY [YCS4] gave a protein stability index of 2.83 ± 0.065.
In the case of IGIDEGSDEAYVKDARK [RPC40], the protein stability index is reported as 3.38 ± 0.076.
IGIPVNKASLAQYEVLA [QCR2] gave a protein stability index of 2.42 ± 0.049.
IGLDTQQVEGKLSQMIL [RPN6] showed a protein stability index of 3.05 ± 0.069.
With IGLRQFQQIQYENKQLY [POP1] the protein stability index was 2.81 ± 0.061.
Work on IGQAVQPKRNLSRYVKW [RPL8A] yielded a protein stability index of 2.97 ± 0.043.
Sequence IGQFLEPIDQNTGIVSS [RPT3] has a protein stability index of 2.82 ± 0.11.
Sequence IGTNDLFQVESAPKISS [SIR4] has a protein stability index of 2.9 ± 0.047.
IGVIAGGGRVDKPLLKA [RPL2A] gave a protein stability index of 3.16 ± 0.09.
In the case of IGVLNNSSESDEEESND [RPN13], the protein stability index is reported as 2.4 ± 0.25.
In the case of IHGVLKNVDREVVSEAI [FAS2], the protein stability index is reported as 3.4 ± 0.3.
In the case of IIMQADLALKMGVPIYG [FAS2], the protein stability index is reported as 2.04 ± 0.068.
IINKLIHIQSKENYPWE [POP3] gave a protein stability index of 2.44 ± 0.047.
IIPSRMGEAQTGANFDD [REC8] gave a protein stability index of 2.16 ± 0.12.
Sequence IKEFVDDLKKDHIAIDW [DSN1] has a protein stability index of 2.96 ± 0.075.
Sequence IKENFFERIMILDPQVT [YJL039C/NUP192] has a protein stability index of 1.33 ± 0.054.
Work on IKIVSDKKVLVKVQPEG [RPT6] yielded a protein stability index of 2.83 ± 0.09.
In the case of IKKIVADLKKGKDLSPA [QCR2], the protein stability index is reported as 3.15 ± 0.2.
Work on IKTFYWLEQFLSCVKND [NUT1] yielded a protein stability index of 1.26 ± 0.038.
IKYEFNGIPLKSKERSS [YMR129W/POM152] showed a protein stability index of 1.24 ± 0.057.
ILAAAHRDAYSGGSVNL [PRE2] showed a protein stability index of 3.2 ± 0.092.
Work on ILDSLPSVIHSSVEMLL [YDL116W/NUP84] yielded a protein stability index of 1.44 ± 0.056.
For ILEEGSSGMGAFGGSGG [RPN10], the protein stability index was 3 ± 0.16.
In the case of ILLYGPPGTGKTLCARA [RPT1], the protein stability index is reported as 1.23 ± 0.18.
For ILNEVFTNPSIVKVFHG [RRP6], the protein stability index was 1.42 ± 0.075.
With ILNFLNQEDLFELVHHF [YML103C/NUP188] the protein stability index was 2.8 ± 0.083.
Sequence ILNSYGVLKPDITFFGE [SIR2] has a protein stability index of 3.13 ± 0.072.
